This note sets out measurements from patent US20220411495A1, “POSITIVE ALLOSTERIC MODULATORS OF THE CALCIUM-SENSING RECEPTOR” (VIB VZW, priority 2019, published 2022).

The test addresses T1, rat CaSR (rCaSR) (Rattus norvegicus, UniProt P48442).
T1 construct: mGlu5 signal peptide (N); expressed in transfected cells; host or cells: HEK293A, transient transfection
T1 sequence (P48442 20-1079): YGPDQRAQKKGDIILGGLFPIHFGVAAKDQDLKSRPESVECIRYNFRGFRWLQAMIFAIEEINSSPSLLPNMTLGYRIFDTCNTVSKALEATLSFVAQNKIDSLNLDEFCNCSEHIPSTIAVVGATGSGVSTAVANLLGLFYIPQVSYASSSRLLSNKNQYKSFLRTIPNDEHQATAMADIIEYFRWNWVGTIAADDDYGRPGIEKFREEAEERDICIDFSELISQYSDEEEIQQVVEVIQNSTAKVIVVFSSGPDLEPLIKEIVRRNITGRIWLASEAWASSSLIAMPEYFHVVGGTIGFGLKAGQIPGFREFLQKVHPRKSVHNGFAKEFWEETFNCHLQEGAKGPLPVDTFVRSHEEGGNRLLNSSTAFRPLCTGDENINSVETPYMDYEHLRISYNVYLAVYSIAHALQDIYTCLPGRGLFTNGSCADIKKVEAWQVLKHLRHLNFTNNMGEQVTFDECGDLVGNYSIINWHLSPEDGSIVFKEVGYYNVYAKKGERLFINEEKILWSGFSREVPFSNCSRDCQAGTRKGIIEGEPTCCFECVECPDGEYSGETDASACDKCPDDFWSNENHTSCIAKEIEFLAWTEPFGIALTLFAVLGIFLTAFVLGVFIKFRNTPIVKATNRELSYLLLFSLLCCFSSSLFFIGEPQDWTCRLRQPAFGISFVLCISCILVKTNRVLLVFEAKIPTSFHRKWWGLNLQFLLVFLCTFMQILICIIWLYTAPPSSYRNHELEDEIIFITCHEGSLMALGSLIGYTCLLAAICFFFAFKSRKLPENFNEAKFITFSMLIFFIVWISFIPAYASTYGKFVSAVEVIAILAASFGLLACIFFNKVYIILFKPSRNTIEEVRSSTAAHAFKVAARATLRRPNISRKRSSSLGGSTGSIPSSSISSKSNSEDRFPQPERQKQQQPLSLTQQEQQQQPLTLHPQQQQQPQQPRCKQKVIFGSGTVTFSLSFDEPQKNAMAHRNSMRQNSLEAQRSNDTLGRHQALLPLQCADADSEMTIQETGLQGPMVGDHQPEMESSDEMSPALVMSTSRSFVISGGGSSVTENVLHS
Description: IP1 accumulation assay, HEK293A cells transiently transfected with HA-rCaSR WT. The format is cell-based. The note with it: IP1 accumulation at EC20 Ca2+. The source says:
The rat and human CaSR orthologs have an overall sequence identity of 93.6% and an ECD sequence identity of 95.7% (SEQ ID NO:1 aligned with SEQ ID NO:2). Thus, differences in CaSR nanobody activity are unlikely to be observed. […] Besides CaSR Nb36, similar results were obtained among the nanobodies that originate from the same family (FIGS. 7E and 7F). For Nb36, the increase in maximum response relative to Nb4 and Nb11 previously observed with human CaSR was absent (FIGS. 7C and 7F). The binding site of these nanobodies still remains to be found. The difference in CaSR Nb36 maximum response and the high interspecies sequence identity could bring us one step closer to finding the binding site for CaSR Nb4, Nb11 and Nb36.
All cell lines utilized in this study were grown at 37° C. and 5% CO2. The HEK293A (RRID: CVCL_6910) and stable Flp-In HEK293 cells were cultured in Dulbecco's Modified Eagle Medium (DMEM, #31966021) supplemented with 10% dialyzed Fetal Bovine Serum (dFBS) and 1% 10,000 units/mL penicillin and 10,000 μg/mL streptomycin mixture (pen/strep). The stable Flp-In CHO cells were cultured in F-12K medium (#21127022) supplemented with 10% dFBS and 1% pen/strep. Additionally, the stable Flp-In HEK293 and Flp-In CHO cell lines were cultured in the presence of respectively 200 and 500 μg/mL hygromycin B. For pharmacological characterization, Flp-In HEK293 HA-hCaSR WT cells were seeded in poly-D-lysine-coated clear 96 well tissue culture plates (Corning, Corning, N.Y., USA) at a density of 50,000 cells/well 18 h prior to assay. Experiments with HA-rCaSR WT and HA-hCaSR S170A required transient transfection of HEK293A cells 24 h prior to assay. DNA construct and Lipofectamine 2000 were diluted in Opti-MEM and mixed together after 5 minutes incubation at room temperature. For HA-rCaSR WT, 30 ng/well rCaSR DNA diluted in 25 μL/well Opti-MEM was mixed with 0.25 μL/well Lipofectamine 2000 in 25 μL/well Opti-MEM. For HA-hCaSR S170A, 40 ng/well […] DNA diluted in 25 μL/well Opti-MEM was mixed with 0.25 μL/well Lipofectamine 2000 in 25 μL/well Opti-MEM. The DNA:Lipofectamine 2000 mixtures were incubated 20 minutes at room temperature after which 50 μL/well was added to a poly-D-lysine-coated clear 96 well tissue culture plate. Next, 100 μL/well of a 400,000 cells/mL HEK293A cell solution prepared in culture media was added and the plate was placed at 37° C. and 5% CO2 (final cell density 40,000 cells/well).
Inositol monophosphate (IP1) accumulation was measured using the commercially available HTRF® IP1 accumulation kit (Cisbio Bioassays, Codolet, France) and an EnVision multimode plate reader (PerkinElmer, Waltham, Mass., USA). Unless stated otherwise, the cells were washed once with 100 μL/well assay buffer and stimulated for 30 minutes at 37° C. with 50 μL/well ligand(s) diluted in assay buffer supplemented with 20 mM LiCl. Following stimulation, the cells were washed once with 100 μL/well and lysed for 30 minutes at room temperature with 30 μL/well lysis buffer provided with the kit. The lysed cells were diluted 1:2 with assay buffer after which 10 μL/well was pipetted to a white 384-well OptiPlate (PerkinElmer, Waltham, Mass., USA). Next, 10 μL of a detection solution consisting of 2.5% IP1-d2 conjugate and 2.5% anti-IP1 antibody diluted in assay buffer was added to each well. Fluorophore emissions were measured after the plate was stored in the dark for 1 h. The 615/665 nm emission ratios measured upon excitation at 340 nm were converted to IP1 concentrations with an IP1 standard curve according to the manufacturer's instructions.

Setting [1] is: three independent experiments in triplicate.

As to `COc1cccc([C@@H](C)NCCCc2ccccc2Cl)c1` [NPS R-568, reference compound], the “Max. response (fold over basal ± S.E.M.), rat ortholog” value came to 3.43 ± 0.76 fold over basal. Moreover, the EC50 (three independent experiments in triplicate, read-out: Potency (pEC50 ± S.E.M.), rat ortholog (converted)) was 257 nM.

B1: Nb2: llama-derived CaSR-specific nanobody acting as PAM, SEQ ID NO:9 (protein)
VHH: QVQLVESGGGLVQAGSSLRLSCAASGRTFSNYRMAWFRQAPGKEREFVAVISRGGGGADYADSVKGRFTISRDNVKNTVSLQMNSLKPEDTAVYFCAARISGFSYYTSVDRYDYWGQGTQVTVSS
modifications: CaSR Nb2
As for B1, the “Max. response (fold over basal ± S.E.M.), rat ortholog” value was 3.01 ± 0.51 fold over basal. Also, under setting [1], the “Potency (pEC50 ± S.E.M.), rat ortholog” value stood at 6.46 ± 0.07.

B2: Nb15: llama-derived CaSR-specific nanobody acting as PAM, SEQ ID NO:10 (protein)
VHH: QVQLVESGGGLVQAGGSLRLSCAASGRTFNNYHMAWFRQAPGKEREFAAAISRRAGTTYYADSVKGRFTISRDNAKNTVYLQMNSLKPEDTAVYYCAADPDTYGVSYLARKYDYWGQGTQVTVSS
modifications: CaSR Nb15
Turning to B2, the “Max. response (fold over basal ± S.E.M.), rat ortholog” value is listed as 2.88 ± 0.13 fold over basal. Further, under setting [1], the “Potency (pEC50 ± S.E.M.), rat ortholog” value amounted to 6.31 ± 0.07.

B3: Nb5: llama-derived CaSR-specific nanobody, weakest PAM, SEQ ID NO:8 (protein)
VHH: QVQLVESGGRLVQDGGSLRLSCAASGLTFSDYSMGWFRQVPGKEREFVAVIRRSNDSTYYADFVKGRFTISRDNAKNTVYLQMNSLQPEDTAVYSCAADRGGVGLTSAQTYAYWGQGTQVTVSS
modifications: CaSR Nb5
On to B3, for which the “Max. response (fold over basal ± S.E.M.), rat ortholog” value worked out at 1.28 ± 0.12 fold over basal.

B4: Nb10: llama-derived CaSR-specific nanobody acting as PAM, SEQ ID NO:3 (protein)
VHH: QVQLVESGGGLVQPGDSLRVSCAASGGSFRSYAMAWFRQAPGKEREFVAAMSGTYGSTIYSDSMKGRFTISRDNAKKMVYLRMNSLRPEDTAVYYCAGYYSGAYYGTPKTDYTEYDSWGQGTQVTVSS
modifications: CaSR Nb10
Turning to B4, the “Max. response (fold over basal ± S.E.M.), rat ortholog” value was 2.89 ± 0.13 fold over basal. Moreover, the “Potency (pEC50 ± S.E.M.), rat ortholog” value under setting [1] came to 6.29 ± 0.02.

B5: Nb37: llama-derived CaSR-specific nanobody acting as PAM, SEQ ID NO:4 (protein)
VHH: QVQLVESGGGLVQPGDSLRVSCAASGGSFRSYAMAWFRRAPGKEREFVAAMSGTYGSTIYADSMKGRFTISRDNAKKMVYLRMNSLRAEDTAVYYCAGYYSGAYYGTPKTDYTEYDSWGQGTQVTVSS
modifications: CaSR Nb37
In the case of B5, the “Max. response (fold over basal ± S.E.M.), rat ortholog” value stood at 3.07 ± 0.39 fold over basal. Under setting [1], the “Potency (pEC50 ± S.E.M.), rat ortholog” value was 6.00 ± 0.28.

B6: Nb4: llama-derived CaSR-specific nanobody acting as PAM, SEQ ID NO:5 (protein)
VHH: QVQLVESGGGLVQAGGSLRLSCAASGRTFSTYRMGWFRQGLGKEREFVAAITANGVRTFYTDSVKGRFTISRDNAKNTLYLQMNSLQPDDTAVYLCAARRKGIFTVQQAQDITDWDYWGQGTQVTVSS
modifications: CaSR Nb4
Turning to B6, the “Max. response (fold over basal ± S.E.M.), rat ortholog” value was 3.03 ± 0.63 fold over basal. In addition, under setting [1], the “Potency (pEC50 ± S.E.M.), rat ortholog” value is reported as 7.09 ± 0.09.

B7: Nb36: llama-derived CaSR-specific nanobody acting as PAM, SEQ ID NO:7 (protein)
VHH: QVQLVESGGGLVQAGESLRLSCAASGRTFSSYRMGWFRQGPGKEREFVAAITATGVRTYYADSVKGRFTISRDNAKNTVYLQMNSLQPDDTAVYLCAARRKAIFSVQQALTITDYDDWGQGTQVTVSS
modifications: CaSR Nb36
For B7, the “Max. response (fold over basal ± S.E.M.), rat ortholog” value turned out to be 3.10 ± 0.12 fold over basal. The “Potency (pEC50 ± S.E.M.), rat ortholog” value under setting [1] amounted to 6.78 ± 0.03.

B8: Nb11: llama-derived CaSR-specific nanobody acting as PAM, SEQ ID NO:6 (protein)
VHH: QVQLVESGGGLVQAGGSLRLSCAASGRTFSTYRMGWFRQGPGKEREFVAAITATGVKTYYTDSVKGRFTISRDNAKNTVYLQMNSVQPEDTAVYSCAARIKAIFTAQQAATITDYDYWGQGTQVTVSS
modifications: CaSR Nb11
With B8, the “Max. response (fold over basal ± S.E.M.), rat ortholog” value worked out at 2.90 ± 0.23 fold over basal. The “Potency (pEC50 ± S.E.M.), rat ortholog” value under setting [1] was determined as 6.24 ± 0.11.
